Publication PMC10234635

Target: recombinant mouse CD47 antigen (mouse) (UniProt Q61735)
Experiment: SPR

Sequence of UniProt Q61735 (Q61735 19-303): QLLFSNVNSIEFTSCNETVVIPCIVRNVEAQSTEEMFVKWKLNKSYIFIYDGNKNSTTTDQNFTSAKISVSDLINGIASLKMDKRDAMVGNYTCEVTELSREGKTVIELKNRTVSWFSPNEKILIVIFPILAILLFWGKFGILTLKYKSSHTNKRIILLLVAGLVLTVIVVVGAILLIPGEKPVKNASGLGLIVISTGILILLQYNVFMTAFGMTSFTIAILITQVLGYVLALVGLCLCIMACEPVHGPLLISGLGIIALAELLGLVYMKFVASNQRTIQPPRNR

fold lower affinity than its affinity to CTLA-4: 10 fold | fold reduction in affinity against SIRPα-Fc: 5 fold
B1: anti–CTLA-4×SIRPα heterodimer (bispecific antibody, V domains shown)
VH: QVKLEESGPGLVNPSQSLSLSCSVTGYSITSGYGWNWIRQFPGQKVEWMGFIYYEGSTYYNPSIKSRISITRDTSKNQFFLQVNSVTTEDTATYYCARQTGYFDYWGQGTMVTVSS
VL: DVMMTQSPSSMSVSAGEKATISCKSSQSLFNSNAKTNYLNWYMQKPGQSPKLLTYYASTRHTGVPDRFRGSGSGTDFTLTISSVQDEDQAFYYCQQWYDYPYTFGAGTKLEIK
